The values that follow come from paper PMC6349032.

This data set deals with GD-FXaS195A (Gla-domainless factor Xa, catalytically inactive) (UniProt P00742;P00742 85-179;235-488, S419A). The experiment in a line: X-ray crystallography.
GD-FXaS195A (Gla-domainless factor Xa, catalytically inactive), sequence (P00742 85-179, chain 1 of 2): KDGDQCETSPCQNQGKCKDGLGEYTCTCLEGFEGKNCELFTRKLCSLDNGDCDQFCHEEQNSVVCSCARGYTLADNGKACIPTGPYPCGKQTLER
GD-FXaS195A (Gla-domainless factor Xa, catalytically inactive), sequence (P00742 235-488 S419A, chain 2 of 2): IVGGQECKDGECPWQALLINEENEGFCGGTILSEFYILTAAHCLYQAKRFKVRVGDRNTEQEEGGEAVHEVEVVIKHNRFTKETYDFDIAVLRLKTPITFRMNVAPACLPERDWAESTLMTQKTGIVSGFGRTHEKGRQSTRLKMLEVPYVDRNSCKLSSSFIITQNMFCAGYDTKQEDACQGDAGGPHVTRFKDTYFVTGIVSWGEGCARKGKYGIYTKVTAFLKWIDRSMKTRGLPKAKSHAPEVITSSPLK

Regarding GAGAGCCCCAGCGAGAUAAUACUUGGCCCCGCUCUU (structured_RNA, all C are 2'-fluoro-C and all U are 2'-fluoro-U; purines A/G as ribonucleotides) [11F7t], the binding result is “binds”.
